Experimental data taken from patent US20040038888A1 (priority 2002, published 2004).

Experiments:
[1] = test system: mouse adult neural stem cells; assay: Intracellular ATP assay, adult mouse NSC, non-adherent culture; assay type: cell-based; settings: varying concentrations, non-adherent conditions, 3 days, relative to control, dose-dependent
Procedure: The anterior lateral wall of the lateral ventricle of 5-6 week old mice was enzymatically dissociated in 0.8 mg/ml hyaluronidase and 0.5 mg/ml trypsin in DMEM containing 4.5 mg/ml glucose and 80 units/ml DNase at 37° C. for 20 min. The cells were gently triturated and mixed with three volumes of Neurosphere medium (DMEM/F12, B27 supplement, 12.5 mM HEPES pH7.4) containing 20 ng/ml EGF (unless otherwise stated), 100 units/ml penicillin and 100μg/ml streptomycin. After passing through a 70 μm strainer, the cells were pelleted at 160×g for 5 min. The supernatant was subsequently removed and the cells resuspended in Neurosphere medium supplemented as above, plated out in culture dishes and incubated at 37° C. Neurospheres were ready to be split approximately 7 days after plating.
To split neurosphere cultures, neurospheres were collected by centrifugation at 160×g for 5 min. […]
Mouse neurospheres, cultured as described above, from passage 2, were seeded in DMEM/F12 supplemented with B27 into a 96-well plate as single cells (10000 cells/well) to the substances to be measured were added at the concentrations indicated. After 3 days incubation, intracellular ATP was measured using the ATP-SL kit from BioThema, Sweden, according to the manufacturer's instructions. […]

ADCYAP1R1 = molecular target: T1, ADCYAP1R1 (Homo sapiens, UniProt P41586); settings: unlike PACAP, which binds ADCYAP1R1 and VIPR1 & 2; Moro and Lerner 1997; cited from earlier work
T1 sequence (P41586 21-468): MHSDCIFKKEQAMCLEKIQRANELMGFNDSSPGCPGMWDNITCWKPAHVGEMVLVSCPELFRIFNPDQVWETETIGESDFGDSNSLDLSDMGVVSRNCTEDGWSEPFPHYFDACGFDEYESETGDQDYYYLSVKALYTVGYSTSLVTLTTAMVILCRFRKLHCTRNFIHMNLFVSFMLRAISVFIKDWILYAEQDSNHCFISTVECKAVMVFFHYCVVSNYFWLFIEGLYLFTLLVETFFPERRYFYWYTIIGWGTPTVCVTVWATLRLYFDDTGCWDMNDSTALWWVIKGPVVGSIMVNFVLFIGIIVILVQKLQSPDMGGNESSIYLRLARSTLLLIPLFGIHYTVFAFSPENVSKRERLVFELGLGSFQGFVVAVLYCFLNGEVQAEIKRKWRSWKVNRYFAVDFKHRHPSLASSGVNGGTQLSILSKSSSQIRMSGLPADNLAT

B1: Maxadilan: 63 amino acid peptide from salivary gland extracts of the sand fly; specific ADCYAP1R1 agonist (SEQ ID NO: 13) (peptide, listed as Mus musculus)
chain: CDATCQFRKAIEDCRKKAHHSDVLQTSVQTTATFTSMDTSQLPGSGVFKECMKEKAKEFKAGK
For B1, the “intracellular ATP levels, and hence cell number” value [1] is listed as “statistically significant increase in intracellular ATP levels” and the binding specificity (ADCYAP1R1) is listed as “binds specifically to only ADCYAP1R1”.
